A word on the IC50: it is the concentration needed to halve the response being measured.

In patent US20140087995A1 (published 2014) one finds IC50 data, which are given here for 5 molecules.

Numbered stars: 1 amine (or outer) side, 2 acyl side, 3 side chain; on linkers, the order of the positions; unused ones are H or OH. Bridge positions count the residues as written; N and C are the ends. Side chains are listed from the residue outwards. Ends that are not written are not given here. * marks the point of attachment. C20 diacid = O=C(O)CCCCCCCCCCCCCCCCCCC(=O)*; γGlu = O=C(O)[C@H](CCC(=O)[*:2])N[*:1]; AEEA = NCCOCCOCC(=O)O

B1: N^ε1-[2-[2-[2-[[(4S)-4-carboxy-4-(19-carboxynonadecanoylamino)butanoyl]amino]ethoxy]ethoxy]acetyl]-[Arg17,Pro21,Pro27,Pro34,His35]-h-amylin (peptide)
peptide: K([AEEA-γGlu-C20 diacid])CNTATCATQRLANFLRHSSPNFGAIPSSTNVGPHTY-NH2
modifications: disulfide 2-7; N-terminus assumed
SMILES: CC[C@H](C)[C@H](NC(=O)[C@H](C)NC(=O)CNC(=O)[C@H](Cc1ccccc1)NC(=O)[C@H](CC(N)=O)NC(=O)[C@@H]1CCCN1C(=O)[C@H](CO)NC(=O)[C@H](CO)NC(=O)[C@H](Cc1c[nH]cn1)NC(=O)[C@H](CCCNC(=N)N)NC(=O)[C@H](CC(C)C)NC(=O)[C@H](Cc1ccccc1)NC(=O)[C@H](CC(N)=O)NC(=O)[C@H](C)NC(=O)[C@H](CC(C)C)NC(=O)[C@H](CCCNC(=N)N)NC(=O)[C@H](CCC(N)=O)NC(=O)[C@@H](NC(=O)[C@H](C)NC(=O)[C@@H]1CSSC[C@H](NC(=O)[C@@H](N)CCCCNC(=O)COCCOCCNC(=O)CC[C@H](NC(=O)CCCCCCCCCCCCCCCCCCC(=O)O)C(=O)O)C(=O)N[C@@H](CC(N)=O)C(=O)N[C@@H]([C@@H](C)O)C(=O)N[C@@H](C)C(=O)N[C@@H]([C@@H](C)O)C(=O)N1)[C@@H](C)O)C(=O)N1CCC[C@H]1C(=O)N[C@@H](CO)C(=O)N[C@@H](CO)C(=O)N[C@H](C(=O)N[C@@H](CC(N)=O)C(=O)N[C@H](C(=O)NCC(=O)N1CCC[C@H]1C(=O)N[C@@H](Cc1c[nH]cn1)C(=O)N[C@H](C(=O)N[C@@H](Cc1ccc(O)cc1)C(N)=O)[C@@H](C)O)C(C)C)[C@@H](C)O
notes: also called 17R, 21P, 27P, 34P, 35H
B2: N^ε1-[2-[2-[2-[[(4S)-4-carboxy-4-(19-carboxynonadecanoylamino)butanoyl]amino]ethoxy]ethoxy]acetyl]-[His14,Arg17,Pro21,Pro27,Arg34]-h-amylin (peptide)
peptide: K([AEEA-γGlu-C20 diacid])CNTATCATQRLAHFLRHSSPNFGAIPSSTNVGRNTY-NH2
modifications: disulfide 2-7; N-terminus assumed
SMILES: CC[C@H](C)[C@H](NC(=O)[C@H](C)NC(=O)CNC(=O)[C@H](Cc1ccccc1)NC(=O)[C@H](CC(N)=O)NC(=O)[C@@H]1CCCN1C(=O)[C@H](CO)NC(=O)[C@H](CO)NC(=O)[C@H](Cc1c[nH]cn1)NC(=O)[C@H](CCCNC(=N)N)NC(=O)[C@H](CC(C)C)NC(=O)[C@H](Cc1ccccc1)NC(=O)[C@H](Cc1c[nH]cn1)NC(=O)[C@H](C)NC(=O)[C@H](CC(C)C)NC(=O)[C@H](CCCNC(=N)N)NC(=O)[C@H](CCC(N)=O)NC(=O)[C@@H](NC(=O)[C@H](C)NC(=O)[C@@H]1CSSC[C@H](NC(=O)[C@@H](N)CCCCNC(=O)COCCOCCNC(=O)CC[C@H](NC(=O)CCCCCCCCCCCCCCCCCCC(=O)O)C(=O)O)C(=O)N[C@@H](CC(N)=O)C(=O)N[C@@H]([C@@H](C)O)C(=O)N[C@@H](C)C(=O)N[C@@H]([C@@H](C)O)C(=O)N1)[C@@H](C)O)C(=O)N1CCC[C@H]1C(=O)N[C@@H](CO)C(=O)N[C@@H](CO)C(=O)N[C@H](C(=O)N[C@@H](CC(N)=O)C(=O)N[C@H](C(=O)NCC(=O)N[C@@H](CCCNC(=N)N)C(=O)N[C@@H](CC(N)=O)C(=O)N[C@H](C(=O)N[C@@H](Cc1ccc(O)cc1)C(N)=O)[C@@H](C)O)C(C)C)[C@@H](C)O
notes: also called 14H, 17R, 21P, 27P, 34R
B3: N^ε1-[2-[2-[2-[[(4S)-4-carboxy-4-(19-carboxynonadecanoylamino)butanoyl]amino]ethoxy]ethoxy]acetyl]-[Gly14,Arg17,Pro21,Pro27,Pro31]-h-amylin (peptide)
peptide: K([AEEA-γGlu-C20 diacid])CNTATCATQRLAGFLRHSSPNFGAIPSSTPVGSNTY-NH2
modifications: disulfide 2-7; N-terminus assumed
SMILES: CC[C@H](C)[C@H](NC(=O)[C@H](C)NC(=O)CNC(=O)[C@H](Cc1ccccc1)NC(=O)[C@H](CC(N)=O)NC(=O)[C@@H]1CCCN1C(=O)[C@H](CO)NC(=O)[C@H](CO)NC(=O)[C@H](Cc1c[nH]cn1)NC(=O)[C@H](CCCNC(=N)N)NC(=O)[C@H](CC(C)C)NC(=O)[C@H](Cc1ccccc1)NC(=O)CNC(=O)[C@H](C)NC(=O)[C@H](CC(C)C)NC(=O)[C@H](CCCNC(=N)N)NC(=O)[C@H](CCC(N)=O)NC(=O)[C@@H](NC(=O)[C@H](C)NC(=O)[C@@H]1CSSC[C@H](NC(=O)[C@@H](N)CCCCNC(=O)COCCOCCNC(=O)CC[C@H](NC(=O)CCCCCCCCCCCCCCCCCCC(=O)O)C(=O)O)C(=O)N[C@@H](CC(N)=O)C(=O)N[C@@H]([C@@H](C)O)C(=O)N[C@@H](C)C(=O)N[C@@H]([C@@H](C)O)C(=O)N1)[C@@H](C)O)C(=O)N1CCC[C@H]1C(=O)N[C@@H](CO)C(=O)N[C@@H](CO)C(=O)N[C@H](C(=O)N1CCC[C@H]1C(=O)N[C@H](C(=O)NCC(=O)N[C@@H](CO)C(=O)N[C@@H](CC(N)=O)C(=O)N[C@H](C(=O)N[C@@H](Cc1ccc(O)cc1)C(N)=O)[C@@H](C)O)C(C)C)[C@@H](C)O
notes: also called 14G, 17R, 21P, 27P, 31P
B4: N^ε1-[2-[2-[2-[[(4S)-4-carboxy-4-(19-carboxynonadecanoylamino)butanoyl]amino]ethoxy]ethoxy]acetyl]-[Arg17,Pro21,Pro27,Pro34]-h-amylin (peptide)
peptide: K([AEEA-γGlu-C20 diacid])CNTATCATQRLANFLRHSSPNFGAIPSSTNVGPNTY-NH2
modifications: disulfide 2-7; N-terminus assumed
SMILES: CC[C@H](C)[C@H](NC(=O)[C@H](C)NC(=O)CNC(=O)[C@H](Cc1ccccc1)NC(=O)[C@H](CC(N)=O)NC(=O)[C@@H]1CCCN1C(=O)[C@H](CO)NC(=O)[C@H](CO)NC(=O)[C@H](Cc1c[nH]cn1)NC(=O)[C@H](CCCNC(=N)N)NC(=O)[C@H](CC(C)C)NC(=O)[C@H](Cc1ccccc1)NC(=O)[C@H](CC(N)=O)NC(=O)[C@H](C)NC(=O)[C@H](CC(C)C)NC(=O)[C@H](CCCNC(=N)N)NC(=O)[C@H](CCC(N)=O)NC(=O)[C@@H](NC(=O)[C@H](C)NC(=O)[C@@H]1CSSC[C@H](NC(=O)[C@@H](N)CCCCNC(=O)COCCOCCNC(=O)CC[C@H](NC(=O)CCCCCCCCCCCCCCCCCCC(=O)O)C(=O)O)C(=O)N[C@@H](CC(N)=O)C(=O)N[C@@H]([C@@H](C)O)C(=O)N[C@@H](C)C(=O)N[C@@H]([C@@H](C)O)C(=O)N1)[C@@H](C)O)C(=O)N1CCC[C@H]1C(=O)N[C@@H](CO)C(=O)N[C@@H](CO)C(=O)N[C@H](C(=O)N[C@@H](CC(N)=O)C(=O)N[C@H](C(=O)NCC(=O)N1CCC[C@H]1C(=O)N[C@@H](CC(N)=O)C(=O)N[C@H](C(=O)N[C@@H](Cc1ccc(O)cc1)C(N)=O)[C@@H](C)O)C(C)C)[C@@H](C)O
notes: also called 17R, 21P, 27P, 34P
B5: N^ε1-[2-[2-[2-[[(4S)-4-carboxy-4-(19-carboxynonadecanoylamino)butanoyl]amino]ethoxy]ethoxy]acetyl]-[His14,Arg17,Pro21,Pro27,His34]-h-amylin (peptide)
peptide: K([AEEA-γGlu-C20 diacid])CNTATCATQRLAHFLRHSSPNFGAIPSSTNVGHNTY-NH2
modifications: disulfide 2-7; N-terminus assumed
SMILES: CC[C@H](C)[C@H](NC(=O)[C@H](C)NC(=O)CNC(=O)[C@H](Cc1ccccc1)NC(=O)[C@H](CC(N)=O)NC(=O)[C@@H]1CCCN1C(=O)[C@H](CO)NC(=O)[C@H](CO)NC(=O)[C@H](Cc1c[nH]cn1)NC(=O)[C@H](CCCNC(=N)N)NC(=O)[C@H](CC(C)C)NC(=O)[C@H](Cc1ccccc1)NC(=O)[C@H](Cc1c[nH]cn1)NC(=O)[C@H](C)NC(=O)[C@H](CC(C)C)NC(=O)[C@H](CCCNC(=N)N)NC(=O)[C@H](CCC(N)=O)NC(=O)[C@@H](NC(=O)[C@H](C)NC(=O)[C@@H]1CSSC[C@H](NC(=O)[C@@H](N)CCCCNC(=O)COCCOCCNC(=O)CC[C@H](NC(=O)CCCCCCCCCCCCCCCCCCC(=O)O)C(=O)O)C(=O)N[C@@H](CC(N)=O)C(=O)N[C@@H]([C@@H](C)O)C(=O)N[C@@H](C)C(=O)N[C@@H]([C@@H](C)O)C(=O)N1)[C@@H](C)O)C(=O)N1CCC[C@H]1C(=O)N[C@@H](CO)C(=O)N[C@@H](CO)C(=O)N[C@H](C(=O)N[C@@H](CC(N)=O)C(=O)N[C@H](C(=O)NCC(=O)N[C@@H](Cc1c[nH]cn1)C(=O)N[C@@H](CC(N)=O)C(=O)N[C@H](C(=O)N[C@@H](Cc1ccc(O)cc1)C(N)=O)[C@@H](C)O)C(C)C)[C@@H](C)O
notes: also called 14H, 17R, 21P, 27P, 34H

In this experiment the target is T1, human amylin receptor (human, UniProt P30988 25-474; O60896 24-148, limits assumed).
T1 construct: whole, on cells; Calcitonin receptor plus RAMP-3 gives the amylin 3(a) receptor; membranes of Amylin 3(a)/CRE-luc cells were used; also called hAmylin-R; hAmylinR
T1 sequence (looked up) 1: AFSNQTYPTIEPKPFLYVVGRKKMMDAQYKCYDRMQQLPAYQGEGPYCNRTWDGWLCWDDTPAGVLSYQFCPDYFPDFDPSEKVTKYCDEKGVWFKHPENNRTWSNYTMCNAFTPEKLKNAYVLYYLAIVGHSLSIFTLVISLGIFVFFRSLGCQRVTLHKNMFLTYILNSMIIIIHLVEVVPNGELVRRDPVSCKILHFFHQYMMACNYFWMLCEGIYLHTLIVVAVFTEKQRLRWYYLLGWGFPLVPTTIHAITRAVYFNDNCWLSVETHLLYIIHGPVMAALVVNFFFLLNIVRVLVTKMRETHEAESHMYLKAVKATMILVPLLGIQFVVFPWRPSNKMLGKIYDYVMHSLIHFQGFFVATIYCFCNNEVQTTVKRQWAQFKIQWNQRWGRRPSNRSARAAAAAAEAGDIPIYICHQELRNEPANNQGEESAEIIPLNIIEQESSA
T1 sequence (looked up) 2: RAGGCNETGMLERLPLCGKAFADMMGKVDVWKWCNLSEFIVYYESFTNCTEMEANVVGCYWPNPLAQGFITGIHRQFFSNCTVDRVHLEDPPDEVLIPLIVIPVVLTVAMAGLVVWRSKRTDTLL
Nature of the experiment: SPA competition binding, displacement of 125I-rat amylin from membranes with human amylin 3(a) receptor (Assay V). A digest of the protocol: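 One-site competition analysis of SPA counts yielded IC₅₀ as a measure of affinity. Membranes were at 35 ng/μL final; incubation was 120 min at 25° C, pH 7.4.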
On the technique in general: Loss of bound radioactivity is the signal in a displacement assay; it reports binding, not function.
For B1, the IC50 turned out to be 0.088 nM. Next, B2: 0.743 nM. In turn, B3 returned an IC50 of 0.048 nM. Next, B4: 0.038 nM. For B5, the IC50 amounted to 0.29 nM.
